# Source: doi:10.1101/2022.06.02.493408 (bioRxiv, 2022)
# Where two headings read alike, the source gives them in different places.
# What was measured:
# [1] = target: WT BetP reconstituted in amphipol A8-35 (AMP-BetP) (Corynebacterium glutamicum) (UniProt P54582); assay: cryo-EM structure
# [2] = target: WT BetP reconstituted in amphipol A8-35 (AMP-BetP) (Corynebacterium glutamicum) (UniProt P54582); assay: cryo-EM structure; remark: listed apart in the source
# crystal structure = target: the molecule itself; assay: crystal structure
# Chain of WT BetP reconstituted in amphipol A8-35 (AMP-BetP) (P54582 whole entry): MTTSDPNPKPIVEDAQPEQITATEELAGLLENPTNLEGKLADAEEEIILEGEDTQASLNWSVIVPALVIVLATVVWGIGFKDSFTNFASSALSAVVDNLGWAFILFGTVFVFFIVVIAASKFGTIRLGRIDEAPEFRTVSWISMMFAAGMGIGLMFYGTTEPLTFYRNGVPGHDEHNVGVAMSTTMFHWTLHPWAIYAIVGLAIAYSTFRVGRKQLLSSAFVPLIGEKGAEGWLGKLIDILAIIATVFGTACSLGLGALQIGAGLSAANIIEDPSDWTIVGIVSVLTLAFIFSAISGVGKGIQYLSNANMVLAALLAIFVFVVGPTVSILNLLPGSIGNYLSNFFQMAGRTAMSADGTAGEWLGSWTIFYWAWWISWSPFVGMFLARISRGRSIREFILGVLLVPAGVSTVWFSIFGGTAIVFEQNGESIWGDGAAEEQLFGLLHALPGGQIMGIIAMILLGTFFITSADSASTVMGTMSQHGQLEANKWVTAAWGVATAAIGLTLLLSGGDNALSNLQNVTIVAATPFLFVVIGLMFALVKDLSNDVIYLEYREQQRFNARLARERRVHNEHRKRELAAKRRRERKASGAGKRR
Molecule,stoichiometry N [1],stoichiometry N [2],stoichiometry N (crystal structure)
WT BetP reconstituted in amphipol A8-35 (AMP-BetP) (from UniProt P54582 1-595) (natural protein),3,3,–
"BetP-ΔN29/E44E45E46/AAA (crystallization mutant BetP^cryst) (natural protein, Corynebacterium glutamicum, UniProt P54582 30-595, looked up) LENPTNLEGKLADAAAAIILEGEDTQASLNWSVIVPALVIVLATVVWGIGFKDSFTNFASSALSAVVDNLGWAFILFGTVFVFFIVVIAASKFGTIRLGRIDEAPEFRTVSWISMMFAAGMGIGLMFYGTTEPLTFYRNGVPGHDEHNVGVAMSTTMFHWTLHPWAIYAIVGLAIAYSTFRVGRKQLLSSAFVPLIGEKGAEGWLGKLIDILAIIATVFGTACSLGLGALQIGAGLSAANIIEDPSDWTIVGIVSVLTLAFIFSAISGVGKGIQYLSNANMVLAALLAIFVFVVGPTVSILNLLPGSIGNYLSNFFQMAGRTAMSADGTAGEWLGSWTIFYWAWWISWSPFVGMFLARISRGRSIREFILGVLLVPAGVSTVWFSIFGGTAIVFEQNGESIWGDGAAEEQLFGLLHALPGGQIMGIIAMILLGTFFITSADSASTVMGTMSQHGQLEANKWVTAAWGVATAAIGLTLLLSGGDNALSNLQNVTIVAATPFLFVVIGLMFALVKDLSNDVIYLEYREQQRFNARLARERRVHNEHRKRELAAKRRRERKASGAGKRR",–,–,3
